# Measured values published in patent US20240101645A1 (HENRY M JACKSON FOUNDATION FOR THE ADVANCEMENT OF MILITARY …, published 2024).
# Columns and labels:
# [1] = target: T1, MERS-CoV spike antigens (bead panel) (MERS-CoV, UniProt K9N5Q8 18-1296); test: multiplex bead assay
# T1 sequence: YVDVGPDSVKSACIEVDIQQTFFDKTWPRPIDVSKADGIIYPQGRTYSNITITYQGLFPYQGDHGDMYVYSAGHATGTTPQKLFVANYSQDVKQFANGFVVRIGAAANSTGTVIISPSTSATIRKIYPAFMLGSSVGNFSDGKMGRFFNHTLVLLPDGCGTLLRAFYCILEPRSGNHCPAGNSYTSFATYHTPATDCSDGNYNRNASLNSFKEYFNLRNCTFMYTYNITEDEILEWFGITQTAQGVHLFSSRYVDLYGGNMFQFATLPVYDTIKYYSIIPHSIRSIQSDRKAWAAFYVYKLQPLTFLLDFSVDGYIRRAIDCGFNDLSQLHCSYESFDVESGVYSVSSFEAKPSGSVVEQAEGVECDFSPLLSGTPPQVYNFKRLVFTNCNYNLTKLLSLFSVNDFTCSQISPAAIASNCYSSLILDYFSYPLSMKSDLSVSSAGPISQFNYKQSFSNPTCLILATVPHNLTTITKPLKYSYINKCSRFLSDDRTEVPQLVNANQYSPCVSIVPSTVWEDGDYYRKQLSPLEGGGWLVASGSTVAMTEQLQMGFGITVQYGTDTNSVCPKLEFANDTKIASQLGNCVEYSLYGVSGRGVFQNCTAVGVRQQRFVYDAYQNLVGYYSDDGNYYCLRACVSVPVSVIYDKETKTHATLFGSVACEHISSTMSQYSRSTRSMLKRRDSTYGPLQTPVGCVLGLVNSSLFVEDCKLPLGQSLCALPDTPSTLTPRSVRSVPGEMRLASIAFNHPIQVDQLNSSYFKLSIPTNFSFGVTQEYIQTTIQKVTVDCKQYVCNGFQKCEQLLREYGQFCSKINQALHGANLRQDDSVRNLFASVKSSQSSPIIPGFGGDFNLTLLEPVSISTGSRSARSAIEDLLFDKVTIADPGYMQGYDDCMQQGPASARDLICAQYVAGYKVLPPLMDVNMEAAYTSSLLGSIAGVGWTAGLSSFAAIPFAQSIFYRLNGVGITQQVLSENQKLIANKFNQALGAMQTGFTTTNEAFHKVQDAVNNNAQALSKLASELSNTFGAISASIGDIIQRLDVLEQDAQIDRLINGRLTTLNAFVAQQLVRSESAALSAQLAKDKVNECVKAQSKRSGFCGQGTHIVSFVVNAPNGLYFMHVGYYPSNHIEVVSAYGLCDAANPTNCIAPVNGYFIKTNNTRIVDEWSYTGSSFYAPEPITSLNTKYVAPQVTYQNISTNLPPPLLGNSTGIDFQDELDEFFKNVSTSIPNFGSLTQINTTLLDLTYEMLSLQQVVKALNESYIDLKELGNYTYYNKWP
# [2] = target: SARS-CoV-1 spike antigens (bead panel) (SARS-CoV-1, UniProt P59594 14-1195); test: multiplex bead assay
binder,measurement,setting,value
"COV_3053 (antibody, V domains shown, human IgG1) VH: EVQLVESGGGLVQPGRSLRLSCTASGFTLGDYAMTWVRQAPGKGLEWLGIIRNKRYGETKQYAASVKGRFTFSRDDSKGIGYLQRLSLKIEDTGVYYCTREHIVRDDAFDVWGQGTTVTVSS VL: DIVMTQSPDSLAVSLGERATINCKSSQSVLYSSNNKNYIAWYQQRPGQPPKLLIYWTSTRASGVPDRFSGSGSGTDFALTISSLQAEDVAVYYCQQYYTIPRTFGQGTKVEIK",binding result,[1],no binding
same,binding result,[2],no binding
"COV_2174 (antibody, V domains shown, human IgG1) VH: EVQLAESGGGLVKPGGSLRLSCAASGFTFSDYYMSWIRQAPGKGLEWVSYISSSGSTIYYADSVKGRFTISRDNAKNSLYLQMNSLRAEDTAVYYCARDWSVVVVPAAPAVDVWGQGTTVTVSS VL: DIQMTQSPSSLSASVGDRVTITCRASQGISNYLAWFQQKPGKAPKSLIYAASSLQSGVPSKFSGSGSGTDFTLTISSLQPEDFATYYCQQYNSYPLTFGGGTKVEIKR",binding result,[1],no binding
same,binding result,[2],no binding
"COV_2172 (SEQ ID NO:872/877) (antibody, V domains shown) VH: EVQLVESGGGVVQPGRSLRLSCAPSGFTFSTYAMHWVRQAPGKGLEWVAVISYDGSIKYYADSVKGRFTISRDNTMNTVFLQMNSLRAEDTAVYFCAKGGERWELFTSFDYWGQGTQVTVSS VL: QSALTQPRSVSGSPGQSVTISCTGTSSDVGGYNYVSWYQQHPGKAPKLMIYDVSKRPSGVPDRFSGSKSGNTASLTISGLQAEDEADYYCCSYAGSYTFVFGGGTKLTVLG",binding result,[1],no binding
same,binding result,[2],no binding
"COV_3088 (antibody, V domains shown, human IgG1) VH: EVQLVESGGGLVQPGGSLRLSCAASGFTFSSYDMHWVRQATGKGLEWVSAIGTAGDTYYPGSVKGRFTISRENAKNSLYLQMNSLRAGDTAVYYCARGSGWPPFFDYWGQGTLVTVSS VL: SYELTQPPSVSVAPGKTARITCGGNNIGSKSVHWYQQKPGQAPVLVIYYDSDRPSGIPERFSGSNSGNTATLTISRVEAGDEADYYCQVWDSSSDHHWVFGGGTKLTVL",binding result,[1],no binding
same,binding result,[2],no binding
"COV_2014 (antibody, V domains shown, human IgG1) VH: QVQLVQSGAEVKKPGASVKVSCKVSGYTLTELSMHWVRQAPGKGLEWMGGFDPEDGETIYAQKFQGRVTMTEDTSTDTAYMELSSLRSEDTAVYYCATGKINYYDSSGYYGTFDYWGQGTLVTVSS VL: AIQLTQSPSSLSASVGDRVTITCRASQGISSYLAWYQQKPGKAPKLLIYAASTLQSGVPSRFSGSGSGTDFTLTISSLQPEDFATYYCQQLNSYHLTFGQGTRLEIK",binding result,[1],no binding
same,binding result,[2],no binding
"COV_3077 (antibody, V domains shown, human IgG1) VH: QVQLQESGPGLVKPSETLSLTCAVSGYSISSGYYWGWIRQPPGKGLEWIGSIYHSGSTYYNPSLKSRVTISVDTSKNQFSLKLSSVTAADTAVYYCARALYDAFDIWGQGTMVTVSS VL: not shown",binding result,[1],no binding
same,binding result,[2],no binding
"COV_1118 (antibody, V domains shown, human IgG1) VH: EVQLVESGGGLVKPGGSLRLSCAASGFSFSNYNMNWVRQAPGKGLEWVSYISSSSSYIYYADSVKGRFTISRDNAKNSLYLQMNSLRGEDTAVYSCAREASGAYYFDRSGYFDYWGQGTLVTVSP VL: not shown",binding result,[1],no binding
same,binding result,[2],no binding
"COV_1050 (antibody, V domains shown, human IgG1) VH: QVQLVESGGGVVQPGRSLRLSCAASRFTFSSYAMHWVRQAPGKGLEWVAVISFDGSNKYYADSVKGRFTIFRDNSKNTLSLQMNSLRTEDTAMYYCASPAGYYESLWGQGTLVTVSS VL: SYELTQPPSVSVSPGQTARVTCSGDALSKQYGFWYQQKPGQAPTLVIYKDTERPSGIPERFSGSGSGTTVTLTISGVQAEDEADYYCQSTDNSGRWVFGGGTKLTVLG",binding result,[1],no binding
same,binding result,[2],no binding
